Measured values as given in article PMC7414852.

Legend:
Experiment in all cases: cryo-EM structure
[1] = target: Vip3Aa16 protoxin (Vegetative Insecticidal Protein 3Aa from Bacillus thuringiensis), residues 10-789 (Bacillus thuringiensis)
[2] = target: Vip3Aa16 N-terminal trypsin fragment (domain I, to K198) (Bacillus thuringiensis)
[3] = target: Trypsin-activated Vip3Aa16 toxin (cleaved at K198, both fragments kept together) (Bacillus thuringiensis)

**Q.** Which stoichiometry N [1] does the source give for “Vip3Aa16 protoxin (Vegetative Insecticidal Protein 3Aa from Bacillus thuringiensis), residues 10-789 (natural protein)” here?
**A.** The stoichiometry N was 4.

**Q.** “Vip3Aa16 N-terminal trypsin fragment (domain I, to K198) (domain or fragment)” was tested. Which stoichiometry N [2] did it give?
**A.** The stoichiometry N was 4.

**Q.** With “Trypsin-activated Vip3Aa16 toxin (cleaved at K198, both fragments kept together) (complex)” as the substance, how does the stoichiometry N [3] read?
**A.** The stoichiometry N was 4.
